Reference: US20220267412A1

Target: porcine pancreatic elastase (porcine) (UniProt P00772)
Experiment: cell-based or functional assay

Chain of porcine pancreatic elastase (porcine) (P00772 27-266): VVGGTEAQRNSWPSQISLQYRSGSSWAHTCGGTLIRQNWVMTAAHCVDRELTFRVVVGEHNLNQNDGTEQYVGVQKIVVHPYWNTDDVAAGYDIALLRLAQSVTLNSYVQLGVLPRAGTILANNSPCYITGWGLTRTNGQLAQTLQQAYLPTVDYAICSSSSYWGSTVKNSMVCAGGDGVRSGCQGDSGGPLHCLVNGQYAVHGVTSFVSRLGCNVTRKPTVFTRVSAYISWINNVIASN

- amount of purified protein to fully inhibit PPE (typically 160 nM, 200 uL, +40 mM 2-ME): 13 µg
Substance: human serpin B1 C344S variant (from UniProt P30740 1-379)
